Test results taken from publication PMC5127646.

Molecular target: RBM5 OCRE domain (residues 451-511), wild type (human) (UniProt P52756)
Assay: ITC; Sm tail constructs with wild type OCRE; SmN constructs (1 mM) titrated into OCRE (100 μM); ITC200, 24°C, 20 mM sodium phosphate pH 6.5, 50 mM NaCl; duplicates

RBM5 OCRE domain (residues 451-511), wild type (human), sequence (P52756 other isoform, or with tags, fused parts or gaps): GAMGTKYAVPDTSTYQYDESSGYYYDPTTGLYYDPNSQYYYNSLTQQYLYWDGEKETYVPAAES

| Kd [µM] | Substance |
| --- | --- |
| 159 | SmB 167-231 R1/R2→E1/E2 (from UniProt P14678-2 167-231) (domain or fragment) |
| 74 | SmN 167-240 R2→E2 (from UniProt P63162 167-240) (domain or fragment) |
| 20 | SmB 167-231 4P→4A (from UniProt P14678-2 167-231) (domain or fragment) |
| 150 | SmN 167-240 R1/R2→E1/E2 (from UniProt P63162 167-240) (domain or fragment) |
| 66.5 | SmN 167-240 R1→E1 (from UniProt P63162 167-240) (domain or fragment) |
